Data: patent US20240101645A1 (HENRY M JACKSON FOUNDATION FOR THE ADVANCEMENT OF MILITARY …, published 2024)

T1: MERS-CoV spike antigens (bead panel) (MERS-CoV, UniProt K9N5Q8 18-1296)
T1 sequence: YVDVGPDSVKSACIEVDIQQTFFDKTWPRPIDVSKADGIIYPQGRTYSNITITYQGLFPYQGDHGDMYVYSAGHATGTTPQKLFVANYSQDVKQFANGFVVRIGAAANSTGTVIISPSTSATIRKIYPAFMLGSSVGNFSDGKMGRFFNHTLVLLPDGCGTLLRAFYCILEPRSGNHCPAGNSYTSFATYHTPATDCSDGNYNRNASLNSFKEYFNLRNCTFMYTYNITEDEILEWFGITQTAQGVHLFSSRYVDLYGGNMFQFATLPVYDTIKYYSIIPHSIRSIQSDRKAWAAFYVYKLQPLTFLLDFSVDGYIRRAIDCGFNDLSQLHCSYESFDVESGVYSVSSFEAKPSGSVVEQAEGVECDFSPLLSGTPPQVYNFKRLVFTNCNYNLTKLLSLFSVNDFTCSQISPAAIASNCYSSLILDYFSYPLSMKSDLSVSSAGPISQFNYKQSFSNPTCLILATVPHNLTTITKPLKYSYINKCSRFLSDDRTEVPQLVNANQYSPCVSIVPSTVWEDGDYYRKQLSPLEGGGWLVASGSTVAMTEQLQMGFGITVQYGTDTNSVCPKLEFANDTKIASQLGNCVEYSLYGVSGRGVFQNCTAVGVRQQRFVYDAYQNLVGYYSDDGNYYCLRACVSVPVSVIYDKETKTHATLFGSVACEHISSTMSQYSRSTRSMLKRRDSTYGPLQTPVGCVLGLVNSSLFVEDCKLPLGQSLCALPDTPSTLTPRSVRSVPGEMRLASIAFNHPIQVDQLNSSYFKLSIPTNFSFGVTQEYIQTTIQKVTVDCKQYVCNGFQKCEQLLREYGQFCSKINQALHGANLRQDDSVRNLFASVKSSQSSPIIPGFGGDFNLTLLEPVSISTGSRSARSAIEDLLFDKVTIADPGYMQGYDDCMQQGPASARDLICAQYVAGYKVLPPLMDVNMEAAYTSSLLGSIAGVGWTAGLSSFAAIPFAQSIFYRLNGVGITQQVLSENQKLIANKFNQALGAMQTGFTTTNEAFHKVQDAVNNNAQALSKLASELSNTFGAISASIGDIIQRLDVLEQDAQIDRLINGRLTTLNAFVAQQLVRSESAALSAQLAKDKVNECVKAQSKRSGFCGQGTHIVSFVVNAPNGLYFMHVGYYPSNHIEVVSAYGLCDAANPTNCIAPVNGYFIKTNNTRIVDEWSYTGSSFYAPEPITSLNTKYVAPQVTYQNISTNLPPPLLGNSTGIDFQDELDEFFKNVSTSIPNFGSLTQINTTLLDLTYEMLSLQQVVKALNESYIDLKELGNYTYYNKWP


Molecular target: T1, MERS-CoV spike antigens (bead panel)
Test: multiplex bead assay

Row | Binder | binding result
1 | COV_2143 (antibody, V domains shown, human IgG1) VH: EVQLVESGGGVVQPGRSLRLSCAASGFTFNSFAMLWVRQAPGKGLEWVALFSYDGSNKYYADSVKGRFTISRDNSKNTLYLQMNNLRAVDTAVYYCARASPYDINGYYLHRIAFDIWGQGTMVTVSS VL: QSVLMQPPSVSGAPGQRVTISCTGSSSNIGAGYDVHWYQQLPGTAPKLLMYGNSNRPSGVPDRFSGSKSGTSASLAITGLQAEDEADYYCQSYDSGLSGWVFGGGTKLTVLG | no binding
2 | COV_1149 (antibody, V domains shown, human IgG1) VH: QVQLVESGGGVVQPGRSLRLSCAASGFTFSSYGMHWVRQAPGKGLEWVAVISYDGSNKYYADSVKGRFTISRDNSKNTLYLQMNSLRAEDTAVYYCAKTGGGYSYGLGNVWGQGTLVTVSS VL: QSALTQPASVSGSPGQSITISCTGTSSDVGGYNYVSWYQQHPGKAPKLMIYDVSNRPSGVSNRFSGSKSGNTASLTISGLQAEDEADYYCSSYTSSSTLVVFGGGTKLTVLG | no binding
3 | COV_3077 (antibody, V domains shown, human IgG1) VH: QVQLQESGPGLVKPSETLSLTCAVSGYSISSGYYWGWIRQPPGKGLEWIGSIYHSGSTYYNPSLKSRVTISVDTSKNQFSLKLSSVTAADTAVYYCARALYDAFDIWGQGTMVTVSS VL: not shown | no binding
4 | COV_1144 (antibody, V domains shown, human IgG1) VH: EVQLVESGGGLVQPGGSLRLSCAASGFTFRSFWMSWVRQAPGKGLEWVANIKEDASEKHYVDPVKGRFTISRDNAKNSLYLQLNSLRAEDMAVYYCARVGRGYCTNGLCYTAFEYWGQGTLVTVSS VL: DIQMTQSPSSLSASVGDRVTITCRTSQSISNYLNWYQQKPGKAPKLLIYAASSLQSGVPSRFSGSGSGTDFTLTISSLQPEDFATYYCQQSYSTAWTFGQGTKVEIRR | no binding
5 | COV_1166 (antibody, V domains shown, human IgG1) VH: EVQLVESGGGLVQPGGSLRLSCAVSGFTFRSFWMSWVRQTPGKGLEWVANIKEDGSEKYYVDSVKGRFTISRDNAKNSLYLQMNSLRAEDTAVYYCAREGRWELLGFAFDIWGQGTMVTVSS VL: not shown | no binding
6 | COV_2056 (SEQ ID NO:792/797) (antibody, V domains shown) VH: EVQLVESGGGVVQPGRSLRLSCAASGFTFSIYGMHWVRQAPGKGLEWVALISYDGTNKYYADSVKGRFSISRDDSKNTLYLQMNSLRPEDTAVYYCAKVLMMGDSSGFSLGDAFDIWGQGTMVTVSS VL: DIQMTQSPSSVSASVGDRVTITCRASQGISNWLAWYQQKPGKAPKLLIYAASSLQSGVPSRFSGSVSGTDFTLTISSLQPEDFATYYCQQANSFPLTFGGGTKVDIKR | no binding
7 | COV_2174 (antibody, V domains shown, human IgG1) VH: EVQLAESGGGLVKPGGSLRLSCAASGFTFSDYYMSWIRQAPGKGLEWVSYISSSGSTIYYADSVKGRFTISRDNAKNSLYLQMNSLRAEDTAVYYCARDWSVVVVPAAPAVDVWGQGTTVTVSS VL: DIQMTQSPSSLSASVGDRVTITCRASQGISNYLAWFQQKPGKAPKSLIYAASSLQSGVPSKFSGSGSGTDFTLTISSLQPEDFATYYCQQYNSYPLTFGGGTKVEIKR | no binding
8 | COV_1201 (antibody, V domains shown, human IgG1) VH: QVQLVQSGAEVKKPGASMKVSCKASGYTFTGYYIHWVRQAPGQGLEWMGRINPNSGGTNYAQKFQGRVTMTRDTSISTAYMELSRLRSDDTAVYYCAREYYYVPYGMDVWGQGTTVTVSS VL: QSALTQPASVSGSPGQSITISCTGTSSDVGGYNFVSWYQHHPGKAPKLMIYEVSNRPSGVSNRFSGSKSGNTASLTISGLQAEDEADYYCSSYTSSSTYVFGTGTKVTVL | no binding
9 | COV_2093 (antibody, V domains shown, human IgG1) VH: EVQLVESGGGLVQPGGSLRLSCAASGFMFNRFWMSWVRQAPGKGLEWVTNIKQDGSEKNYVDSVKGRFTISRDNAKNSLYLQMNSLRAEDTAVYYCARDGLYYDFRSPSPFYGMDVWGQGTTVTVSS VL: DIQMTQSPSSLSASVGDRVTITCRASQSISSYLNWYQHKSGKAPKLLIYAASRLQSGVPSRFSGSGSGTDFTLTIVSLQPEDLATYYCQQSYSTPRTFGGGTKVEIKR | no binding
10 | COV_1151 (antibody, V domains shown, human IgG1) VH: QVQVQQWGAGLLKPSETLSLTCAVYGGSFNNYYWSWIRQPPGKGLEWIGEINHSGSTNYNPSLMSRVTISVDTSKNQFSLKLTSVTAADTAVYFCARGLPVTTFFSSYYGMDVWGQGTTVTVSS VL: EIVLTQSPGTLSLSPGERATLSCRASQSVSRTYLAWYQQKPGQAPRLLIYGASSRATGIPDRFSGSGSGTDFTLTISRLEPEDFAVYYCQHYGSSPWTFGQGTKVEIRR | no binding
11 | COV_1170 (antibody, V domains shown, human IgG1) VH: QVQLVESGGGVVQPGRSLRLSCAASGFTFSTYAMHWVRQAPGKGLEWVALISYDGSNKYYADSVKGRFTISRDNSKNTLDLQMNSLRAEDTAVYYCARSLGGYRTGFDYWGQGTLVTVSS VL: DIQLTQSPSFLSASVGDRVTITCRASQGISSYLAWYQQKPGKAPKLLIYAASTLQSGVPSRFSGSGSGTEFTLTISSLQPEDFATYYCQQLNSYPPFTFGPGTKVDIKR | no binding
12 | COV_2077 (antibody, V domains shown, human IgG1) VH: QVQLQESGPGLVKPSETLSLTCTVSGGSISSYSWSWIRQPPGKGLEWIGYIYYSGSTNYNPSLKSRVTISVDTSKNQFSLKLSSVTAADTAVYYCARESMGRYSLELRQPESAFDYWGRGTLVTVSS VL: not shown | no binding
13 | COV_2014 (antibody, V domains shown, human IgG1) VH: QVQLVQSGAEVKKPGASVKVSCKVSGYTLTELSMHWVRQAPGKGLEWMGGFDPEDGETIYAQKFQGRVTMTEDTSTDTAYMELSSLRSEDTAVYYCATGKINYYDSSGYYGTFDYWGQGTLVTVSS VL: AIQLTQSPSSLSASVGDRVTITCRASQGISSYLAWYQQKPGKAPKLLIYAASTLQSGVPSRFSGSGSGTDFTLTISSLQPEDFATYYCQQLNSYHLTFGQGTRLEIK | no binding
14 | COV_2048 (antibody, V domains shown, human IgG1) VH: QVQLQESGPGLVKPSETLSLTCTVSGGSISNTSYYWGWIRQPPGKGLEWIGSIYRSGSTYYNPSLKSRVTISIDTSKNQFTLKLSSVTAADTAVYYCARDYYGDYSAKPMEYWGQGTLVTVSS VL: QSALTQPRSVSGSPGQSVTISCTGTSSDVGGYNYVSWYQQHPGKAPKLLIYDVSKRPSGVPDRFSGSKSGNTASLTISGLQAEDEADYYCCSYAGSYVVFGGGAKLTVLG | no binding
15 | COV_2172 (SEQ ID NO:872/877) (antibody, V domains shown) VH: EVQLVESGGGVVQPGRSLRLSCAPSGFTFSTYAMHWVRQAPGKGLEWVAVISYDGSIKYYADSVKGRFTISRDNTMNTVFLQMNSLRAEDTAVYFCAKGGERWELFTSFDYWGQGTQVTVSS VL: QSALTQPRSVSGSPGQSVTISCTGTSSDVGGYNYVSWYQQHPGKAPKLMIYDVSKRPSGVPDRFSGSKSGNTASLTISGLQAEDEADYYCCSYAGSYTFVFGGGTKLTVLG | no binding
16 | COV_1172 (antibody, V domains shown, human IgG1) VH: QVQLQESGPGLVKPSETLSLTCTVSGGSIRSYYWSWIRQPPGKGLEWIGYIYYSGSTNYSPSLKSRVTISVDTSKNQFSLKLNSVTAADTAVYYCARRGLGYCSGDSCSNAFDIWGQGTMVTVSS VL: DIQMTQSPSSLSASVGDRVTITCRASQSISSYLNWYQQKPGRAPELLIYDASSLQSGVPSGFSGSGSGTDFTLTISSLQPEDFATYYCQQSYSTPFTFGPGTKVDIKR | no binding
